Our source for the Tie2 phosphorylation functional assay, EC50 values is patent publication US20200407435A1.

For the test, the target named is rhAngiopoietin-2 (R&D systems cat 623-AN/CF) (human) (UniProt O15123). As to the kind of experiment: cell-based or functional assay.

Values joined by “and” are separate entries in the source; they are usually repeats but may differ in a detail not shown here. Equal values may be shown once.

rhAngiopoietin-2 (R&D systems cat 623-AN/CF) (human), sequence (O15123 19-496 limits assumed): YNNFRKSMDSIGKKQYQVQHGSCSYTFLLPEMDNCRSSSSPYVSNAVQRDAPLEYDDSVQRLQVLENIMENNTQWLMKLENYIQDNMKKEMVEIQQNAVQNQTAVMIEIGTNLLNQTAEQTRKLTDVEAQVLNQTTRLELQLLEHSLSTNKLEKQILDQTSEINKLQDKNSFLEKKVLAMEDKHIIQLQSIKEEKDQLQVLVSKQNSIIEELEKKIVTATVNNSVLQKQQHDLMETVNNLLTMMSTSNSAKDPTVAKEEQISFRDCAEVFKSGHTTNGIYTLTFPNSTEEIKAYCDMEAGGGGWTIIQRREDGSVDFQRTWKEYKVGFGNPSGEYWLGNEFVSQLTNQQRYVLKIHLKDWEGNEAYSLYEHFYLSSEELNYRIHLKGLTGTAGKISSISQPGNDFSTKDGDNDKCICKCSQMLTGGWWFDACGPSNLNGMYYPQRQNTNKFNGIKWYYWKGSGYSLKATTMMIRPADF

With “Nesvacumab analog (Regeneron) (antibody)”, the Tie2 phosphorylation functional assay, EC50 was 4.4 nM and 2.2 nM.
